Assay results as given in article PMC7771966, “Quantitative glycoproteomics reveals cellular substrate selectivity of the ER protein quality control sensors UGGT1 and UGGT2” (eLife, 2020).

T1: glutathione S-transferase-calreticulin (GST-CRT) (UniProt P15253 18-418)
T1 construct: calreticulin from the plasmid pGEX-3X-GST-CRT (Baksh and Michalak, 1991; from M. Michalak); also called WT GST-CRT; GST-CRT-WT; source: E. coli BL21, purified (glutathione sepharose)
T1 sequence (looked up): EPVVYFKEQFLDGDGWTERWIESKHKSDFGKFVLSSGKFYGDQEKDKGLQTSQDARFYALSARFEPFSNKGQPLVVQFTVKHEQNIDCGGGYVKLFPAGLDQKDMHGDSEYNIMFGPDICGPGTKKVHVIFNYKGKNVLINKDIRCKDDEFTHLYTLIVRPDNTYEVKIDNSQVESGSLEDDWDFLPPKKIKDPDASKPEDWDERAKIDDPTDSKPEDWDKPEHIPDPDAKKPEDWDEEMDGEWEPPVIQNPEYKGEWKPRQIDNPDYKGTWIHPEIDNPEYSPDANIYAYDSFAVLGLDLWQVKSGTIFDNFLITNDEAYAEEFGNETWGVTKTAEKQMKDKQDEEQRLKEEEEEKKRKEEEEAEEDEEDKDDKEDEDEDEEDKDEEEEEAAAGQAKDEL


Molecular target: T1, glutathione S-transferase-calreticulin …
Experiment: pull-down; GST-CRT or GST-CRT-Y109A on glutathione beads, 16 h at 4 C with lysate (MNT: 20 mM MES, 100 mM NaCl, 30 mM Tris pH 7.5, 0.5% Triton X-100, protease inhibitors, 20 mM NEM) of ALG6-/-, ALG6/UGGT1-/- or ALG6/UGGT2-/- HEK293-EBNA1-6E cells treated with 500 uM DNJ for 14 h; immunoblot; percent reglucosylation = (GST-CRT lane minus Y109A lane) / total in whole cell lysate x 100
Conditions: one partner purified

Row | Binder | percent reglucosylation (bound by GST-CRT minus GST-CRT-Y109A, of the total in the lysate), ALG6/UGGT2-/- cells [%]
1 | β-hexosaminidase subunit β (HexB), immature ER-localized proHexB (enzyme, human (endogenous in HEK293-EBNA1-6E), UniProt P07686 43-556, looked up, monoglucosylated N-glycans (reglucosylated by the UGGTs; sites not stated), beta-hexosaminidase subunit beta, human, endogenous; the immature or ER-localized pro form, not yet processed into three chains; By immunoblot only proHexB was purified by GST-CRT; source: endogenous, lysate of CRISPR-edited HEK293-EBNA1-6E cells (ALG6-/- background), DNJ treated) ARAPSVSAKPGPALWPLPLLVKMTPNLLHLAPENFYISHSPNSTAGPSCTLLEEAFRRYHGYIFGFYKWHHEPAEFQAKTQVQQLLVSITLQSECDAFPNISSDESYTLLVKEPVAVLKANRVWGALRGLETFSQLVYQDSYGTFTINESTIIDSPRFSHRGILIDTSRHYLPVKIILKTLDAMAFNKFNVLHWHIVDDQSFPYQSITFPELSNKGSYSLSHVYTPNDVRMVIEYARLRGIRVLPEFDTPGHTLSWGKGQKDLLTPCYSRQNKLDSFGPINPTLNTTYSFLTTFFKEISEVFPDQFIHLGGDEVEFKCWESNPKIQDFMRQKGFGTDFKKLESFYIQKVLDIIATINKGSIVWQEVFDDKAKLAPGTIVEVWKDSAYPEELSRVTASGFPVILSAPWYLDLISYGQDWRKYYKVEPLDFGGTQKQKQLFIGGEACLWGEYVDATNLTPRLWPRASAVGERLWSSKDVRDMDDAYDRLTRHRCRMVERGIAAQPLYAGYCNHENM | 20
2 | ectonucleotide pyrophosphatase/phosphodiesterase family member 1 (ENPP1) (enzyme, human (endogenous in HEK293-EBNA1-6E), UniProt P22413 1-925, looked up, monoglucosylated N-glycans (reglucosylated by the UGGTs; sites not stated), ectonucleotide pyrophosphatase/phosphodiesterase family member 1, human, endogenous; source: endogenous, lysate of CRISPR-edited HEK293-EBNA1-6E cells (ALG6-/- background), DNJ treated) MERDGCAGGGSRGGEGGRAPREGPAGNGRDRGRSHAAEAPGDPQAAASLLAPMDVGEEPLEKAARARTAKDPNTYKVLSLVLSVCVLTTILGCIFGLKPSCAKEVKSCKGRCFERTFGNCRCDAACVELGNCCLDYQETCIEPEHIWTCNKFRCGEKRLTRSLCACSDDCKDKGDCCINYSSVCQGEKSWVEEPCESINEPQCPAGFETPPTLLFSLDGFRAEYLHTWGGLLPVISKLKKCGTYTKNMRPVYPTKTFPNHYSIVTGLYPESHGIIDNKMYDPKMNASFSLKSKEKFNPEWYKGEPIWVTAKYQGLKSGTFFWPGSDVEINGIFPDIYKMYNGSVPFEERILAVLQWLQLPKDERPHFYTLYLEEPDSSGHSYGPVSSEVIKALQRVDGMVGMLMDGLKELNLHRCLNLILISDHGMEQGSCKKYIYLNKYLGDVKNIKVIYGPAARLRPSDVPDKYYSFNYEGIARNLSCREPNQHFKPYLKHFLPKRLHFAKSDRIEPLTFYLDPQWQLALNPSERKYCGSGFHGSDNVFSNMQALFVGYGPGFKHGIEADTFENIEVYNLMCDLLNLTPAPNNGTHGSLNHLLKNPVYTPKHPKEVHPLVQCPFTRNPRDNLGCSCNPSILPIEDFQTQFNLTVAEEKIIKHETLPYGRPRVLQKENTICLLSQHQFMSGYSQDILMPLWTSYTVDRNDSFSTEDFSNCLYQDFRIPLSPVHKCSFYKNNTKVSYGFLSPPQLNKNSSGIYSEALLTTNIVPMYQSFQVIWRYFHDTLLRKYAEERNGVNVVSGPVFDFDYDGRCDSLENLRQKRRVIRNQEILIPTHFFIVLTSCKDTSQTPLHCENLDTLAFILPHRTDNSESCVHGKHDSSWVEELLMLHRARITDVEHITGLSFYQQRKEPVSDILKLKTHLPTFSQED | 12
